From patent publication US20240141060A1 (Novartis, published 2024)

How the values were obtained:
[1] = target: T1, Recombinant Mouse 5′-Nucleotidase/CD73 Protein, CF (R&D Systems Cat: 4488-EN) (mouse, UniProt Q61503 29-549, limits assumed); experiment: ForteBio Octet RED384 (BLI), whole IgG on AHQ sensors, 1:1 model
T1 construct: Bought protein; also called Mouse CD73-His; recombinant mouse CD73; not shown: His tag
T1 sequence (looked up): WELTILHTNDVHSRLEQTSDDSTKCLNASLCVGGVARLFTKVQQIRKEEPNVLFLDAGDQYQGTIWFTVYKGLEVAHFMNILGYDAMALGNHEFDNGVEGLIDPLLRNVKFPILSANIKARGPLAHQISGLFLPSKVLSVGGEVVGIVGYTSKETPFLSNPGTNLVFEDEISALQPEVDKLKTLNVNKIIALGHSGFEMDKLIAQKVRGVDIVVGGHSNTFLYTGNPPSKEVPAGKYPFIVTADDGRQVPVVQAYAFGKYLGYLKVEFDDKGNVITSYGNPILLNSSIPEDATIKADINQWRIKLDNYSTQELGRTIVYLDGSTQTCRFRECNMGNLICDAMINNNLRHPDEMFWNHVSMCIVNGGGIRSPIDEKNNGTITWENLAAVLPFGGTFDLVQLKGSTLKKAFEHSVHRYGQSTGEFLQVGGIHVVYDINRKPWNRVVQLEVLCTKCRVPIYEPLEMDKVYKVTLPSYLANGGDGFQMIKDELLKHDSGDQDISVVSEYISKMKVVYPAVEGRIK
Experimental: (§1) Briefly, ForteBio affinity measurements were performed by loading IgGs on-line onto AHQ sensors. Sensors were equilibrated off-line in assay buffer for 30 min and then monitored on-line for 60 seconds for baseline establishment. Sensors with loaded IgGs were exposed to 100 nM antigen for 3 minutes, and afterwards were transferred to assay buffer for 3 min for off-rate measurement. All kinetics were analyzed using the 1:1 binding model. Antigens used were: [0438] Human CD73-His: Recombinant Human 5′-Nucleotidase/CD73 Protein, CF from R&D Systems Cat: 5795-EN [0439] Mouse CD73-His: Recombinant Mouse 5′-Nucleotidase/CD73 Protein, CF from R&D Systems Cat: 4488-EN [0440] Cynomolgus CD73-His: Cynomolgus CD73/NT5E Protein (His Tag) from Sino Biological Cat: 90192-C08H-50

[2] = target: T2, Recombinant Human 5′-Nucleotidase/CD73 Protein, CF (R&D Systems Cat: 5795-EN) (human, UniProt P21589 27-547); experiment: ForteBio Octet RED384 (BLI), whole IgG on AHQ sensors, 100 nM antigen, 1:1 model
T2 construct: Bought protein; also called Human CD73-His; recombinant human CD73; not shown: His tag
T2 sequence (looked up): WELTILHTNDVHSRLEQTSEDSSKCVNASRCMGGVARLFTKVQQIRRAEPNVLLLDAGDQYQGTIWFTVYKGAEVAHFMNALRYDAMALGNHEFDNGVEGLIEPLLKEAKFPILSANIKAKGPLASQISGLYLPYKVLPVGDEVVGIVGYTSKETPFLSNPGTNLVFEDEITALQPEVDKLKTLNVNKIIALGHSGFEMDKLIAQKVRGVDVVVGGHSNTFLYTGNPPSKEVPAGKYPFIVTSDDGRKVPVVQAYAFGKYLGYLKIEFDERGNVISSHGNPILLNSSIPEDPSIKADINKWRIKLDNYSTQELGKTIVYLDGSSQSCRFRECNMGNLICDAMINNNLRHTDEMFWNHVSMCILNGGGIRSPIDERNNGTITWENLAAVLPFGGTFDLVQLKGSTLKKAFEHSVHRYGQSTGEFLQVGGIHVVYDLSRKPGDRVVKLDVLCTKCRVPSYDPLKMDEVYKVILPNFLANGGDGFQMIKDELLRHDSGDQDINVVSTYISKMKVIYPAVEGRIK
Experimental: as §1

[3] = target: T1, Recombinant Mouse 5′-Nucleotidase/CD73 …; experiment: restated binding profile (Octet)
[4] = target: T3, Cynomolgus CD73/NT5E Protein (His Tag) (Sino Biological Cat: 90192-C08H-50) (cynomolgus monkey, UniProt A0A2K5V5U7 27-547); experiment: ForteBio Octet RED384 (BLI), whole IgG on AHQ sensors, 100 nM antigen, 1:1 model
T3 construct: treated as one protein; also called Cynomolgus CD73-His; recombinant cynomolgus monkey CD73; not shown: His tag
T3 sequence: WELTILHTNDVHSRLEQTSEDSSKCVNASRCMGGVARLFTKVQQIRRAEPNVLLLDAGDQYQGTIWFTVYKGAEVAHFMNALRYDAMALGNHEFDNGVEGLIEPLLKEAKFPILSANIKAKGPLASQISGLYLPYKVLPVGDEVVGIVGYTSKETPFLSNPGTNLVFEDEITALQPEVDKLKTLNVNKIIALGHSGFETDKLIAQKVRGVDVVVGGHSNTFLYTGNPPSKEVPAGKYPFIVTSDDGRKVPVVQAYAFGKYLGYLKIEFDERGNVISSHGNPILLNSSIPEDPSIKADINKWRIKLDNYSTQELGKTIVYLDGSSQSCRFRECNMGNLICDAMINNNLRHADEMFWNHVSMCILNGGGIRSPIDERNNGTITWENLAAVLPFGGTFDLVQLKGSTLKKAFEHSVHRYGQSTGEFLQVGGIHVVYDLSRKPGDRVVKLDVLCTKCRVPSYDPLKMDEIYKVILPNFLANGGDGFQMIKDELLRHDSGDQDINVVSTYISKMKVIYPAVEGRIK
Experimental: as §1

[5] = target: T1, Recombinant Mouse 5′-Nucleotidase/CD73 …; experiment: as above
Experimental: as §1

Row | Binder | binding result [1] | Kd [2] | binding result [3] | Kd [4] | Kd [5]
1 | 930.C (antibody, V domains shown, also called 930 IgG1 format) VH: not shown VL: EIVLTQSPATLSVSPGERATLSCRASQSVGSNLAWYQQKPGQAPRLLIYGASTRATGIPARFSGSGSGTEFTLTISSLQSEDFAVYYCQQHNAFPYTFGGGTKVEIK | no binding (tested: 100 nM antigen) | 1830 pM |  |  | 
2 | 930 (antibody, V domains shown, also called parental antibody 930; Lineage 3 parent) VH: not shown VL: EIVLTQSPATLSVSPGERATLSCRASQSVGSNLAWYQQKPGQAPRLLIYGASTRATGIPARFSGSGSGTEFTLTISSLQSEDFAVYYCQQHNAFPYTFGGGTKVEIK |  |  | no binding |  | 
3 | 379.C (antibody, V domains shown, also called 379 IgG1 format) VH: EVQLLESGGGLVQPGGSLRLSCAASGFTFSRYAMSWVRQAPGKGLEWVSSISGTGGSTYYADSVKGRFTISRDNSKNTLYLQMNSLRAEDTAVYYCARGGLYGSGSYLSDFDLWGRGTLVTVSS VL: EIVLTQSPATLSVSPGERATLSCRASQSVGSNLAWYQQKPGQAPRLLIYGASTRATGIPARFSGSGSGTEFTLTISSLQSEDFAVYYCQQHNAFPYTFGGGTKVEIK | no binding (tested: 100 nM antigen) | 550 pM |  | 1620 pM | 
4 | 374.C (antibody, V domains shown) VH: EVQLLESGGGLVQPGGSLRLSCAASGFTFSYNAMSWVRQAPGKGLEWVSSISGTGGSTYYADSVKGRFTISRDNSKNTLYLQMNSLRAEDTAVYYCARGGLYGSGSYLSDFDLWGRGTLVTVSS VL: EIVLTQSPATLSVSPGERATLSCRASQSVGSNLAWYQQKPGQAPRLLIYGASTRATGIPARFSGSGSGTEFTLTISSLQSEDFAVYYCQQHNAFPYTFGGGTKVEIK | no binding (tested: 100 nM antigen) | 358 pM |  | 103 pM | 
5 | 379 (antibody, V domains shown, also called progeny antibody 379; Lineage 3 child) VH: EVQLLESGGGLVQPGGSLRLSCAASGFTFSRYAMSWVRQAPGKGLEWVSSISGTGGSTYYADSVKGRFTISRDNSKNTLYLQMNSLRAEDTAVYYCARGGLYGSGSYLSDFDLWGRGTLVTVSS VL: EIVLTQSPATLSVSPGERATLSCRASQSVGSNLAWYQQKPGQAPRLLIYGASTRATGIPARFSGSGSGTEFTLTISSLQSEDFAVYYCQQHNAFPYTFGGGTKVEIK |  |  | no binding |  | 
6 | 374 (antibody, V domains shown, also called Lineage 3 child) VH: EVQLLESGGGLVQPGGSLRLSCAASGFTFSYNAMSWVRQAPGKGLEWVSSISGTGGSTYYADSVKGRFTISRDNSKNTLYLQMNSLRAEDTAVYYCARGGLYGSGSYLSDFDLWGRGTLVTVSS VL: EIVLTQSPATLSVSPGERATLSCRASQSVGSNLAWYQQKPGQAPRLLIYGASTRATGIPARFSGSGSGTEFTLTISSLQSEDFAVYYCQQHNAFPYTFGGGTKVEIK |  |  | no binding |  | 
7 | 376 (antibody, V domains shown, also called progeny antibody 376; Lineage 3 child) VH: EVQLLESGGGLVQPGGSLRLSCAASGFTFRSYAMSWVRQAPGKGLEWVSAITGSGGLTYYADSVKGRFTISRDNSKNTLYLQMNSLRAEDTAVYYCARGGLYGSGSYLSDFDLWGRGTLVTVSS VL: EIVLTQSPATLSVSPGERATLSCRASQSVGSNLAWYQQKPGQAPRLLIYGASTRATGIPARFSGSGSGTEFTLTISSLQSEDFAVYYCQQHNAFPYTFGGGTKVEIK |  |  | no binding |  | 
8 | 373.C (antibody, V domains shown) VH: EVQLLESGGGLVQPGGSLRLSCAASGFTFHRYAMSWVRQAPGKGLEWVSAISGSGMNTYYADSVKGRFTISRDNSKNTLYLQMNSLRAEDTAVYYCARGGLYGSGSYLSDFDLWGRGTLVTVSS VL: EIVLTQSPATLSVSPGERATLSCRASQSVGSNLAWYQQKPGQAPRLLIYGASTRATGIPARFSGSGSGTEFTLTISSLQSEDFAVYYCQQHNAFPYTFGGGTKVEIK | no binding (tested: 100 nM antigen) | 621 pM |  | 914 pM | 
9 | 373 (antibody, V domains shown, also called Lineage 3 child) VH: EVQLLESGGGLVQPGGSLRLSCAASGFTFHRYAMSWVRQAPGKGLEWVSAISGSGMNTYYADSVKGRFTISRDNSKNTLYLQMNSLRAEDTAVYYCARGGLYGSGSYLSDFDLWGRGTLVTVSS VL: EIVLTQSPATLSVSPGERATLSCRASQSVGSNLAWYQQKPGQAPRLLIYGASTRATGIPARFSGSGSGTEFTLTISSLQSEDFAVYYCQQHNAFPYTFGGGTKVEIK |  |  | no binding |  | 
10 | 377 (antibody, V domains shown, also called progeny antibody 377; Lineage 3 child) VH: EVQLLESGGGLVQPGGSLRLSCAASGFTFKSYAMSWVRQAPGKGLEWVSAISGSGSYTYYADSVKGRFTISRDNSKNTLYLQMNSLRAEDTAVYYCARGGLYGSGSYLSDFDLWGRGTLVTVSS VL: EIVLTQSPATLSVSPGERATLSCRASQSVGSNLAWYQQKPGQAPRLLIYGASTRATGIPARFSGSGSGTEFTLTISSLQSEDFAVYYCQQHNAFPYTFGGGTKVEIK |  |  | no binding |  | 
11 | 376.C (antibody, V domains shown, also called 376 IgG1 format) VH: EVQLLESGGGLVQPGGSLRLSCAASGFTFRSYAMSWVRQAPGKGLEWVSAITGSGGLTYYADSVKGRFTISRDNSKNTLYLQMNSLRAEDTAVYYCARGGLYGSGSYLSDFDLWGRGTLVTVSS VL: EIVLTQSPATLSVSPGERATLSCRASQSVGSNLAWYQQKPGQAPRLLIYGASTRATGIPARFSGSGSGTEFTLTISSLQSEDFAVYYCQQHNAFPYTFGGGTKVEIK | no binding (tested: 100 nM antigen) | 301 pM |  |  | 
12 | 377.C (antibody, V domains shown, also called 377 IgG1 format) VH: EVQLLESGGGLVQPGGSLRLSCAASGFTFKSYAMSWVRQAPGKGLEWVSAISGSGSYTYYADSVKGRFTISRDNSKNTLYLQMNSLRAEDTAVYYCARGGLYGSGSYLSDFDLWGRGTLVTVSS VL: EIVLTQSPATLSVSPGERATLSCRASQSVGSNLAWYQQKPGQAPRLLIYGASTRATGIPARFSGSGSGTEFTLTISSLQSEDFAVYYCQQHNAFPYTFGGGTKVEIK | no binding (tested: 100 nM antigen) | 572 pM |  | 1420 pM | 
13 | 918.C (antibody, V domains shown) VH: QVQLQESGPGLVKPSETLSLTCTVSGGSISSYYWSWIRQPPGKGLEWIGYIYSSGSTNYNPSLKSRVTISVDTSKNQFSLKLSSVTAADTAVYYCARESQESPYNNWFDPWGQGTLVTVSS VL: DIQMTQSPSSVSASVGDRVTITCRASQGISSWLAWYQQKPGKAPKLLIYAASSLQSGVPSRFSGSGSGTDFTLTISSLQPEDFATYYCQQGNSFPRTFGGGTKVEIK |  | 1530 pM |  |  | 8880 pM
